Reference: paper PMC11730255 (Molecular Therapy Oncology, 2024)

Target: T1, rhB7-H6 biotinylated Fc fusion protein (human, UniProt Q68D85 25-262, biotin)
T1 construct: B7-H6 (natural cytotoxicity triggering receptor 3 ligand 1), human; supplier named under library sorting; the BLI methods say only 'B7-H6'; source: bought: R&D Systems
T1 sequence (looked up): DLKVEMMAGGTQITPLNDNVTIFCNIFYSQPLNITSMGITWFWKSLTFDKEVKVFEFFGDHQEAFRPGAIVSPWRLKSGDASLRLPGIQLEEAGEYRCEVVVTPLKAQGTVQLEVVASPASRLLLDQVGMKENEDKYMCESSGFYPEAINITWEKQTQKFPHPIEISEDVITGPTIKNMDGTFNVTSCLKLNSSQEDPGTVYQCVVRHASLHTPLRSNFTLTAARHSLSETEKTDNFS
Assay: BLI; competition/epitope binning: antibodies coupled on activated ARG2G biosensors, first association with NKp30 3 min, second association 3 min with B7-H6 or the other NKp30 binders; both orientations, 25 C
Details: both partners purified

B1: Recombinant human His-tagged ECD of NKp30 (receptor, UniProt O14931 19-135, looked up)
chain: LWVSQPPEIRTLEGSSAFLPCSFNASQGRLAIGSVTWFRDEVVPGKEVRNGTPEFRGRLAPLASSRFLHDHQAELHIRDVRGHDASIYVCRVEVLGLGVGTGNGTRLVVEKEHPQLG
notes: NKp30 (natural cytotoxicity triggering receptor 3), human, extracellular domain; supplier named under library sorting; also called rhNKp30; NKp30 His-tagged protein; source: bought: ACROBiosystems
- binding result: binds
